Data as given in paper PMC10672810, “Research of Multicopper Oxidase and Its Degradation of Histamine in Lactiplantibacillus plantarum LPZN19” (Microorganisms, 2023).

What was measured:
[1] = substrate: CCn1c(=NN=c2sc3cc(S(=O)(=O)O)ccc3n2CC)sc2cc(S(=O)(=O)O)ccc21; assay: ABTS oxidation, visible absorption, Lineweaver-Burk; type: biochemical, Lactiplantibacillus plantarum; settings: MES buffer, pH 3.5, 50 °C, 2 h
Source text: ABTS oxidation, visible absorption, Lineweaver-Burk on MCO (multicopper oxidase)

[2] = substrate: NCCc1c[nH]cn1; assay: histamine degradation monitored by LC-MS; type: biochemical, Lactiplantibacillus plantarum; settings: 50 °C, pH not stated for this assay

B1: MCO (multicopper oxidase) (Lactiplantibacillus plantarum WCFS1) (protein)
chain: MAKKVYTDYFFDEPAYNTHDGGYIPLVTPKVEPQPLAIPPLLKPDRQTDTDDYYTVTAQESETQFLPGKKTKTWGYNAGFLGQTIVFRNGKQTHIDLENKLPELTTFHWHGLNVPGPITDGGCHAPVYPGETNHIDFKVHQPAATTWLHAHPCPSTATQVWKGLATMVIIKDDVEDQLPLPRNYGVDDIPLVLQDREFHDDNQFDYRADYDPDGVQGHTALVNGTVNPYFDVTTQRVRLRILDGSNRREWRLHFNDDLEFAQVASDGGILPAPVYMTKVMMTCAERDEIVVDFGQYQPGDEVTLMTDDTPLCRFRIKSFVPDDTKLPEHLVDIPDETPTPDLPVRTITMDGMDDEVALDGKKFDMSRIDARQKVGDVAIWEIRNTNSTENGMVHPFHVHGTQFRVLARNDGPVYPNEHGLKDTVGVNPGETVRIKVKFELTGVYMYHCHIIEHEDGGMMAQIESYDPQHPQTYHLMDMDTLRNAFAKEQGIKPEDVWMPGM
notes: full length, 501 residues, no signal peptide; pET-28a EcoRI/HindIII, N-terminal His-tag (about 67 kDa on SDS-PAGE), E. coli BL21 (DE3), Ni-NTA; primers imply N-terminus MAKKVYTD and C-terminus WMPGM; peptides EFHDDNQFDYR, GLATMVIIKDDVEDOLPLPR
Km [1]: 2.18 ± 0.13 mmol/L | kcat [1]: 3.77 ± 0.09 s⁻¹ | kcat/Km [1]: 1730 ± 160 M⁻¹ s⁻¹ | Km [2]: 2.07 ± 0.18 mmol/L
